Data on 2 molecules can be found in doi:10.1101/2025.05.16.654284 (bioRxiv, 2025).

For this test, the target named is T1, YbbP (E. coli, UniProt P77504 1-804).
T1 sequence: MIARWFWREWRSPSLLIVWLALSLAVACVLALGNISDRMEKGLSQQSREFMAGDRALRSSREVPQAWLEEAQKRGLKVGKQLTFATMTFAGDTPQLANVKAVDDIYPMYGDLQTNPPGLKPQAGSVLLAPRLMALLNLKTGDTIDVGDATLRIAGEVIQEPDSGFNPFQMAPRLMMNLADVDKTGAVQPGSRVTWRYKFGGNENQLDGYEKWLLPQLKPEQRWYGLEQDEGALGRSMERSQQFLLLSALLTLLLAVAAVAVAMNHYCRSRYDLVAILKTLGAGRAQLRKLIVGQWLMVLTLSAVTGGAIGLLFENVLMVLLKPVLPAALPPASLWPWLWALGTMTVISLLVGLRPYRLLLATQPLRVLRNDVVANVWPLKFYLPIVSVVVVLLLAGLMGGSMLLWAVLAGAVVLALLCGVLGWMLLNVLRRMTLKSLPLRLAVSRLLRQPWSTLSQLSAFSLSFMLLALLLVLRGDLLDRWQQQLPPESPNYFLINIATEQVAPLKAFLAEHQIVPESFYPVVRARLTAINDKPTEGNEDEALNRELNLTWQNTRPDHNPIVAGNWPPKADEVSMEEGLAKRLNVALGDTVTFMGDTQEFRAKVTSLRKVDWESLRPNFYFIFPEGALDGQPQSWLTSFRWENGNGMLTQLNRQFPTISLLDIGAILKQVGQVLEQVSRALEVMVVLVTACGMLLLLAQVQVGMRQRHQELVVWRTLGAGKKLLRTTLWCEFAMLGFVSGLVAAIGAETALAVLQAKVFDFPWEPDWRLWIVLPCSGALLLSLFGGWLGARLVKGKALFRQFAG
The test can be described thus: cryo-EM structure.

B1: TesA Ser36Ala (enzyme, E. coli, UniProt P0ADA1 27-208, looked up)
chain: ADTLLILGDALSAGYRMSASAAWPALLNDKWQSKTSVVNASISGDTSQQGLARLPALLKQHQPRWVLVELGGNDGLRGFQPQQTEQTLRQILQDVKAANAEPLLMQIRLPANYGRRYNEAFSAIYPKLAKEFDVPLLPFFMEEVYLKPQWMQDDGIHPNRDAQPFIADWMAKQLQPLVNHDS
On to B1, for which the “stoichiometry N” value amounted to 1.

B2: YbbA (natural protein, E. coli)
chain: MPAENIVEVHHLKKSVGQGEHELSILTGVELVVKRGETIALVGESGSGKSTLLAILAGLDDGSSGEVSLVGQPLHNMDEEARAKLRAKHVGFVFQSFMLIPTLNALENVELPALLRGESSAESRNGAKALLEQLGLGKRLDHLPAQLSGGEQQRVALARAFNGRPDVLFADEPTGNLDRQTGDKIADLLFSLNREHGTTLIMVTHDLQLAARCDRCLRLVNGQLQEEA
As to B2, the “stoichiometry N” value came out at 2.

In general, stoichiometry N refers to a count of units in the complex or per binding partner.
